Assay: soluble on expression in E. coli; label from the status in PepcDB or PDB records

Sequence	soluble on expression in E. coli
MQVNRLPFFTNHFFDTYLLISEDTPVGSSVTQLLARDMDNDPLVFGVSGEEASRFFAVEPDTGVVWLRQPLDRETKSEFTVEFSVSDHQGVITRKVNIQVGGVNDNAPTFHNQPYSVRIPENTPVGTPIFIVNATDPDLGAGGSVLYSFQPPSPFFAIDSARGIVTVIQELDYEVTQAYQLTVNATDQDKTRPLSTLANLAIIITDLEHHHHHH	soluble
MGSDKIHHHHHHMGPVGYTTLDTAVVERRLGVERLGYRVVGEGYVYRHKYKAGGQRVSTLIGRPEPLDPARVLRVLSAGAYNVVLISPLHGEDDGGLASYIHNNFSAITAVDLQGYYRGYASVWTPPTARIGSLAHISSDDASDPPREPMANIIVYTRGEAGGEVLSPSGSLTIPPPPKLVEDPTGAGDIFTMVFAIMLFRGAPPGPAAEEAAAKTPEILESIRGDEGFQYSVPHSPSEAFWI	not soluble
MNIAKLIDHTILKANTTKEDVMKVIEEAKEYKFASVCINPTWVKLAAEELAGHDVDVCTVIGFPLGASTTETKAFETKDAIAKGATEVDMVINVGALKDGDNELVEKDIYEVVQAAKGKALVKVIIETCLLTDEEKVRACELSVKAGADFVKTSTGFSTGGATAEDIALMRKTVGPNVGVKASGGVRTREDAEKMVAAGASRVGASASVAIVLNDAKGATDNY	not soluble
QMFWPLQPVQLSLANVFLALANYLDAKAKLFHPVTNLAPQPMRIEAARLNAATVTALNACKATLLTRSKRGHVDGPSDRFLNIYFIAQDIHERVSSSHYRYQDLATEFERSDVLFRFKYLLETQAQACRDIAQAIQLGNEYTHTDESILALAELQNSLAYLEEQQQGHWKRLLMQLTYLFNNLATVEKQLNNINNPDAERLEEDTLADTNPHTLKAMWQRISANLHKDSMLFRH	not soluble
MSLNNIDNIINFINKTPKSELHLHIEGSLEPELMFKLSKRNKIEIPFKSVEDIKSAYNFSNLDSFLKIYYEGSNVLITEEDFFDLTWEYILRCKKDNIVHTEIFFDPQSHTSRGIKFDIIINGIHKALAKANDEFGITSKIIMCFLRHLDEKLCFDVLKDAIQHKDKIIGVGLDSSEKGNPPKKFKRLFEEAIKEGFLTVAHAGEEGPPEYIWDSLNLLKVKRIDHGVQCLKDDDLVKNLKENNIPLTVCPLSNIKLCVFDKLENHNLKKMLEKGLRVMVNSDDPAYFGGYLNKNLIEISKALNLNLEQVKVLIQNSFKSSFLDKKSKSKWLSKVEGHHHHHH	soluble
MAHHHHHHSLSDLKIARIDVFQVDLPYSGGVYYLSAGREYRSFDATIVRITTDTGIEGWGESTPFGSNYIASHPRGVRAGIATMAPSLIGLDPRRVDRINDAMDDALLGHEDAKTAIDVACWDIFGKSVGLPVCELLGGRTNTRLPLISSIYVGEPEDMRARVAKYRAKGYKGQSVKISGEPVTDAKRITAALANQQPDEFFIVDANGKLSVETALRLLRLLPHGLDFALEAPCATWRECISLRRKTDIPIIYDELATNEMSIVKILADDAAEGIDLKISKAGGLTRGRRQRDICLAAGYSVSVQETCGSDIAFAAIVHLAQTIPERSLRCILECRDMVTVKTADGAFDIQDGFATAPTTPGLGIMPRLDVLGEAVASYF	soluble
AHHHHHHGSEELIREVILKNLTLNSAGGIGLEELDDGATIPLGDKHLVFTIDGHTVKPIFFPGGDIGRLAVSGTVNDLAVMGAQPLAIASSLIIEEGFEVSELEKILKSMDETAKEVPVPIVTGDTKVVEDRIGIFVITAGVGVAERPISDAGAKVGDVVLVSGTIGDHGIALMSHREGISFETELKSDVAPIWDVVKAVADAIGWENIHAMKDPTRGGLSNALNEMARKANVGILVREEAIPIRPEVKAASEMLGISPYEVANEGKVVMIVAKEYAEEALEAMKKTEKGRDAAIIGEVIGEYRGKVILETGIGGRRFLEPPLGDPVPRVC	soluble
MAVRFIREDGDEILRKVSKKVDVIDERIKTLLDDMAETMYAANGVGLAAPQVGVLKRVVVIDVGDGLMELINPEIVEQEGEQIDIEGCLSIPGVAGEVKRPARVVVEALNREGEKITVEGKELLAVALCHEIDHLDGILFTDKVIRFIDEDEMERRRENKRRNKIRQNKG	not soluble
MDVDLAAPMSESEKLLYRSNLLGSDKRITNYGGGNTSAKVIETDPLTGEPAEVLWVKGSGGDVGSIRMDGFATLYMDKLNALRGIYRGGEHEDEMVAFLRHCTFNLNPRAASIDTPLHAYVPAKHVDHMHPDAIIAIAAAKDSKKLTQEIFGDRIGWLPWKRPGYELGLWLSDFCEKNPDAKGVVLESHGLFTWADDARECYERTLEIIQTAMDWFAEQTAGKPAFGGALEHHHHHH	not soluble
MGLSPGQTSVSFLWPLLEVRDHNTGRGLVPATVLTPGSPETLLELRQAFLGSRQARHGHDAAPSSGQQGCSVDRTAGRPVLGWRLRNSLTGQEGRQHLHLSGIRTSRKAKEYKPVFFGATEISVLMAVAESLREPPPPQWGWFLSSLFLKIF	not soluble
MSLANLFESHSPAGPLANRMRPQSLDEIVGQRHLIGESTLLRRAILADRLGTVIFYGPPGTGKTTLARVISSYTKSAFEQLNAVTAKLDQLREVLKAAESRLQFDQQKTILFLDEIHRFNKMQQDALLPALEAGTITLIGATTENPSFEVNAALLSRATVFRFETPTTEDLRVVLHRTLHDTERGLGKYPITVTEEAVDHYVKLSDGDYRALLNALELAVLTTPEIDGEITIDLSVAEESIQQKALKYDKDGDRHYDVISAFIKSIRGSDPDAALYWLAVMIEAGESPRFIVRRLYVHAAEDIGMSDPQALLIVDACARACEYIGFPEARIPLAETVLYLATAPKSNTVITAIDQALELVRRSDGGPVPPHLRDAHHAGAAALGNGVEYQYPHQFPHAYVKQNYWPENLARTKPVFYKPSPRGFEKQLQARLDFWKKQEGHHHHHH	soluble
MSEISAIWERIEAWHAANDQTENLNPGATAEALAQAEKDMGLTFPPEMRESLLRHDGSVDDSWPTGELLSLERMADERKVWMDLLQDGTFDGNASHNESSEALQPGWWNPAWIPLDADGGGNGAVIDLAPGPQGTVGQVIDMDHEVGPSGPKYVSLAAYLEAMLERLSEAEE	soluble
MGSDKIHHHHHHMTKFSVYIGIDWANDKHDVCVQVANSSARKFEVIKHSPKSINEWITSLHKQYKGQIAVAIELSKGPIVYALQKFDFITIHPVNTSMLAQYRKAFSPSGAKDDPTDAELALDLMLRYPNKIKALKMDSESVRKLTYLVEQRRKLVDDKRRFSNRLIITLKEYYPHLLDWFSHRGSGIFCDFITRWPNLQKLKRARADTLKKFFGSYPGRTAAYSVKRIQSISEAEPLTLDNAVIESHQLLAVALANQLLVAVKVIKVFDREISELFNALPDAELYKSLPGTGPCLAPRLLVAIGENRSRFNSASEIQMYAVIAPVTVRSGQKSWIHWRYQCSKFTRQSFIEWATKSIRQSYWAEIYYQQQREKGNTHQAAVRSLAFKWIRIIYRCWKTKEPYNEAKYLKALSDRNSPLLFKEKAC	not soluble
KSCCSCCPAGCEKCAKDCVCKGEEGAKAEAEKCSCCQ	soluble
MHYLSPLSLSLFLFCIEGHRESFSFFPSHDDGWAEPTARSEGKRERERERERERERGERGPTDTLSLSLSQFT	not soluble
MGSDKIHHHHHHMIIENLSQLYPKGYLSKTIGSEATYSIPVDDQFFIVNKAFLSIKEQHLLEALFPISENPTITGNHPWFSYLFQQAKLPAEGTFRMLQIQTNVTKELQAEWQFNLTKMFPDTVDCFSPSNNMYILVEEQSKNTFQQEEIQGIFLTLDTDFDCTSAVFVGNFYSSEDILRRCFHEEQRIFSEELNSSSRTTVFSLTDVALHYFTKEAMSQNVLVEYYRRLLNKDTDIQPIISALWKNQGNISSTAKDLFMHRNTLHYRLEKFFEQTGLSLKKMDDLIFCYLLLRK	not soluble
EGRYIYMNPAHREMFGIATEDEILGRSWRELYSGDVADHIATTALPALLSTGGWRGELIGRRRDGSDLPQEVSLTLKADGGIICISRD	not soluble
RTQFKINSIPTVSDPYHINYDLTFSLNFASNKRNTYGTGWLIDWKGDENNPEKNDPFKVYLATNLHVIDALRNNNDYEPYNKDSNNQAFNSEEITRFFSIGKYTYPSIFSELNFIINAREAFVSIQTSTIPKTAYAAVNFVETQGEDESYTDSLSTDNKRDIYADFAVI	not soluble
MMVIGRLGAGKSFATKLRLVRRAMFDEDTVVIMLDPMRGFAGVNEALDGERITVGGRRGLNPLEIKPTPDHVLQEVDDIDPWGEQINWVMTFFATFFEHVADHPLGERNQTLRRAVQEAYEKRGITRDPETHTRDSPTIHDVITVLEEMVEDPEEYGYVTDGEQEAVQSDAQSLLKDLRPSFREGGELENLARPSEFDLDSKVIYLDLHQEEGTRGRAETSLMMQVLFNSVYERVKQTDKRVVFCIDEAHYLMNDAVSLDFLETAVRHSRHFDLSLEFITQTGGEFALTPEARTIANLCSLTVLHRVNEEKEKIAKWF	not soluble
MMDESLCGGLPPEICEQLSVEEQIIKIRLEKRRFGREVTIIEGINEKEFNLKKLASTLKSRLATGGTAKNGRIELQGDHRHRVKKILVELGFPEENITIID	soluble
MGQGAPLFADKGGEIAALMRGAYFVAHNVDFDLPFLQAELERAGWPPFAGPTIDTVELARIVLPTAESYKLGDLARQLGLRHDRPHQADSDAEVTAKLFIALLKRLSRLPLMTLEQLRGLARHLKSDIYLLLDAVIAKKRNKAPADRAVAVYRGIALKQPAPEPDESDRRPALASFAAFCEQEPPLPLPGYKRRAGQWEMMRLVYEALSTSQHALIEAGTGLGKSLAYLIPAAFFACEQQERVVISTHTLQLQEQLIRRDWPVLRQIAPFPLRVAVLKGKQNYLSLDKFASFLSEPSDTYDAALLKCQVLVWLLETDSGDLDELNVSSGARLLLSALAIGEEEDGGRHHFFARAKERSERADVVITNHALLLHDLTGPAPLLPPFRHLIIDEAHRLEDAAARCFGEQIGYVSFRLLTAKIAQTIAKWQEAEQDAPNGALVRCQQRLEELQFEGDELFRLLRRYALDKKPARAGRCRYRFSPTDEQSRAWQAAVELCWRLRDLAAALSAEAKPLLSADTSGDFPPSALLSADLAALNRQMAALVRLLTEKEPGVVRWIEADEKGAANAVRLYSQPVDLADFFADQLFMKKRSVVLTSATLTVRGRFTYMAARLGLEDFYPLCRSFPPPFRYEEQAALFVPADMPLVSAVPLEDYAEAVAASVLAIARRLGRRVLVLFPSYELLKLTVDALKTEEEGEPFVLIAQGVQSGSPAKLLRTFLQFEHAVLFGTSSFWEGVDLPGSALDVLVIARLPFAPPDDPVMEAKSERIRLEGGDPFSELALPEAVLRFKQGFGRLIRTEDDKGAVFVLDRRLMASPYGADFLASLPPLSVHEGALSELLDKAETWLS	not soluble
MDSKKILYISQEIFPYLPETDISVVSRKLPQTIQERGNEVRIFMPRYGIINERRNQLHEVIRLSGINMIINDNDHPLIIKVASIQSARMQVYFIDNDDFFKRKTMYDIKPKQENDNDERAIFFVRGALEAIKKLRWIPDVIHCHGWFTALAALYLKKMYADDPCLQKAKVVYSVYDDAGQGVIPETLFGKLGFDKITPDDLSVMEQSSDYLALNRLAIRYADGVIQGSETIAPELTDYISSLEGKAFLPYQGKEDYEEAFDNFYSDLLTANLEHHHHHH	not soluble

Reference: the DeepSol protein solubility set
